Measured values published in article PMC3119066 (DNA repair, 2011).
Like-named read-outs stand apart in the source and are kept apart here. Blank lines part the entries; values can stand above or below the binder they belong to.

Columns and labels:
[1] = molecular target: T1, Rad51 (S. cerevisiae, UniProt P25454 1-400); test: pull-down
T1 sequence (looked up): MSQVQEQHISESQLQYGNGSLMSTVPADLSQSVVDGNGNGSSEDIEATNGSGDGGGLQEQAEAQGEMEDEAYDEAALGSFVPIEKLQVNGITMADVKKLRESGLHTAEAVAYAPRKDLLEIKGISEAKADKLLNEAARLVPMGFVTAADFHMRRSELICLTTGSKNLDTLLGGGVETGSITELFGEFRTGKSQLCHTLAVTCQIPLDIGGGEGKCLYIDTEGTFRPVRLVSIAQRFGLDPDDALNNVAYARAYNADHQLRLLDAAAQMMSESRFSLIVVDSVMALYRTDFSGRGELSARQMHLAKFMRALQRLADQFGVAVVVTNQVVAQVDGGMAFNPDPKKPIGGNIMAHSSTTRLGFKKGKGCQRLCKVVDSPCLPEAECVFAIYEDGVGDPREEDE

[2] = molecular target: T1, Rad51; test: pull-down; remark: listed apart in the source

binding result [1]: binds
B1: Mei5-Sae3 complex (complex, S. cerevisiae)
chain 1: MHNQEEWLDKDKTLVNEEENTCINHSYTKKDTNNYRVGKSGIKDLKKPTNQKEIAIKNRELTKQLTLLRQENNHLQQACKILSENKIIENRKSIEKWRTICEMELSFILNSTLIKINRMGGYKDFLEKEMEAKKRRLEYQIDNGMEDQICEIKESDDFRQLSEVEKQEWESQMNEQLKELEKKKIAELEKLNKVLHDSEGKDFGMAELCTRLKLDYSLIFPQ
chain 2: MNYLETQLNKKQKQIQEYESMNGNLIKMFEQLSKEKKNDETPKKISSTYIKELKEYNELRDAGLRLAQIIADEKQCKIKDVFEEIGYSMKD

binding result [2]: binds
B2: MBP-Mei5-N (domain or fragment, S. cerevisiae, UniProt P32489 1-121, looked up)
chain: MHNQEEWLDKDKTLVNEEENTCINHSYTKKDTNNYRVGKSGIKDLKKPTNQKEIAIKNRELTKQLTLLRQENNHLQQACKILSENKIIENRKSIEKWRTICEMELSFILNSTLIKINRMGG
